# Assay results from patent US20140335510, “NANOPARTICLE SENSOR FOR NUCLEIC ACID-PROTEIN INTERACTION” (Agency for Science, Technology and Research, published 2014).
# T1: FoxA1 (full-length) (UniProt P55317 P55317:1-472)
# T1 sequence: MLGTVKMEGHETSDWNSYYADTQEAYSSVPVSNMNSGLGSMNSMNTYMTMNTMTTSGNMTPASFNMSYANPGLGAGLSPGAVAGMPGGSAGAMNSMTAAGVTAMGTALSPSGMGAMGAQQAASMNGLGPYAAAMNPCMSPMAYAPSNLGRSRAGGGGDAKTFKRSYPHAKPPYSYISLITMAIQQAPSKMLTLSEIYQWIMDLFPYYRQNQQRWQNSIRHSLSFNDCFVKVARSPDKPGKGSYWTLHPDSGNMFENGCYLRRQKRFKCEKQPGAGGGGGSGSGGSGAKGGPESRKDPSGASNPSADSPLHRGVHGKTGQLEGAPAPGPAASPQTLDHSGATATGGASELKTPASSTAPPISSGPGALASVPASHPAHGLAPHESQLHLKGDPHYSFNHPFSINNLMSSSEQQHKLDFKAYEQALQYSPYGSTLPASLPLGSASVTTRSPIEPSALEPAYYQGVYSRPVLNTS
# B1: mtR3 (dsDNA)
# DNA 1: AAAGTATTCAGAATCCATG
# DNA 2: CATGGATTCTGAATACTTT
# Target: T1, FoxA1 (full-length)
# Test: negative control; no fluorescence change of ACP-430 or CCP-410 on adding FoxA1
# Conditions: tags: N-terminal His-MBP fusion, pHISMBP vector, E. coli BL21(DE3); label: 5'-thiol-AuNP on sense strand (sensor)
binder,measurement,value
B1,binding result,no binding
